Source: patent US20160067347A1, “APJ RECEPTOR AGONISTS AND USES THEREOF” (AMGEN INC., priority 2012, published 2016)
Where two headings read alike, the source gives them in different places. *1 amine or outer side, *2 acyl side, *3 side chain or, on linkers, in order; H or OH if unused. Where a SMILES comes first, the peptide text is derived from it. Primed or numbered codes have the meaning given here. Where no end group is shown, it is not given here. [ ]: non-standard residue; d: D form. Atz = (S)-2-amino-3-(1H-1,2,3-triazol-4-yl)propanoyl residue, substituent (PEG) on triazole N1, O=C([C@H](Cc1cn([*:3])nn1)N[*:1])[*:2]; Oic = O=C(O)[C@@H]1C[C@@H]2CCCC[C@@H]2N1; Phe(4-Cl) = N[C@@H](Cc1ccc(Cl)cc1)C(=O)O; 1Nal = N[C@@H](Cc1cccc2ccccc12)C(=O)O; hArg = N=C(N)NCCCC[C@H](N)C(=O)O; Cha = N[C@@H](CC1CCCCC1)C(=O)O; 40K‑mPEG = 40 kDa methoxy-PEG; pGlu = O=C1CC[C@@H](C(=O)O)N1; PEG11′ = not defined here; PEG23′ = not defined here; PEG35′ = not defined here; PEG47′ = not defined here; Nle = CCCC[C@H](N)C(=O)O

Legend:
rat APJ receptor = target: T1, rat APJ receptor (Rattus norvegicus, UniProt Q9JHG3); experiment: [35S]GTPγS assay, membranes from stable cell lines, rat APJ; assay type: biochemical; conditions: for potency relative to monopeptide (SEQ ID NO: 494): FIG. 13, PEGylated bis-peptides on low molecular weight monodispersed PEG; for in vitro potency relative to endogenous pyr apelin 13 (SEQ ID NO: 128) / in vitro potency, mono vs bis vs tetrakis 20 kDa PEG peptides: FIG. 11, in vitro rat GTPγS assay
T1 construct: expressed in transfected cells; CHO is named only for the cAMP assay
T1 sequence (Q9JHG3 1-377): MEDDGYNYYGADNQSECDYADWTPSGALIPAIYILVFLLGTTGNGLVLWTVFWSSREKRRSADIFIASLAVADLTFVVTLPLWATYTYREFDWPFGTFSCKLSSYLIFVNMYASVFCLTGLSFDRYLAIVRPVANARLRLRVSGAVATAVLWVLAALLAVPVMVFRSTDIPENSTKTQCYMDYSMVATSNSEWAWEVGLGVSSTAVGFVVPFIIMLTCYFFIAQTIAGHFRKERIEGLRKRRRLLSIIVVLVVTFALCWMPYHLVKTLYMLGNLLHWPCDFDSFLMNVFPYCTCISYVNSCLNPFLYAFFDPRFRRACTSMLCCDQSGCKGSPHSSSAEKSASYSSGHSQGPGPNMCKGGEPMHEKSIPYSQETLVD
Description: To assay for GTP, membranes were prepared from stable cell lines and used to determine the efficacy/potency of the modified peptides. The optimal experimental conditions for the concentrations of GDP, MgCl2 and NaCl in the assay buffer were initially determined. The membranes were incubated with modified peptides in the assay buffer. The reaction was initiated by addition of [^35S] GTPγS in the absence or presence of peptides and incubated at room temperature for 90 min. […] Bound [^35S] GTPγS was separated from free radiolabel by filtration. The filter bound radioactivity was determined by liquid scintillation counting.
A series of PEGylated peptides were prepared and screened in vitro to explore the effects of PEG size and peptide valency on potency and efficacy in the GTPγS assay. In the assay 20 kDA and 40 kDA PEG were compared (FIG. 10).
Additionally mono- and multivalent bis, and tetrakis-peptide conjugated PEGS were prepared to explore peptide valency. […]

in vitro = conditions: rat
Description: Apelin peptides were spiked into freshly prepared mouse, rat, dog and human EDTA plasma to a final concentration of 5 μM. The plasma samples were then incubated at 37° C. over a period of 4 hr. Up to 8 time points were sampled to facilitate estimation of in vitro half life in plasma matrices. In a typical experiment, aliquot of 100 μL of plasma sample was taken from the incubation vial, followed by addition of 300 μL of MeOH containing internal standard. The quenched sample was centrifuged at 5500 g for 15 min after 15 min vortex in room temperature. The supernatant was then analyzed by high resolution LC-MS.

FIGURE 4B [1] = experiment: FIGURE 4B
Excerpt: (§1) Table printed on a drawing sheet, FIGURE 4B
Section band inside the table: Peptides with thioether linker and 20 kDa PEG modification
(§2) The patent's description of the figure: FIGS. 4A-B. In vitro stability of APJ agonists in plasma.
(§3) First reader's note: Rows 3 and 9 of the grid are section headings spanning all columns (linker type of the 20 kDa PEGylated peptides).

FIGURE 4B [2] = experiment: FIGURE 4B; remark: listed apart in the source
Excerpt: as §1
Section band inside the table: Peptides with triazole linker and 20 kDa PEG modification
as §2, §3

With “SEQ ID NO: 474: 40 Kda PEGylated peptide compared with the 20 kDa PEGylated peptide SEQ ID NO: 24 ({40K‑mPEG-Thiopropionyl}-KFRRQRP[hArg][Cha]SHKG[Oic][Nle]P[Phe(4-Cl)]-OH)” the “Emax relative to the 20 kDa PEGylated peptide” value (rat APJ receptor; FIG. 10) was 84 % of 20 kDa.
For `CCCC[C@H](NC(=O)[C@@H]1CCCN1C(=O)CNC(=O)[C@H](CCCCN)NC(=O)[C@H](Cc1c[nH]cn1)NC(=O)[C@H](CO)NC(=O)[C@H](CC1CCCCC1)NC(=O)[C@H](CCCCNC(=N)N)NC(=O)[C@@H]1CCCN1C(=O)[C@H](CCCNC(=N)N)NC(=O)[C@@H]1CCC(=O)N1)C(=O)N[C@@H](Cc1cccc2ccccc12)C(=O)O` [compound 31] ([pGlu]RP[hArg][Cha]SHKGP[Nle][1Nal]-OH; C-terminus assumed), the remaining at 1 h, 5 μM (in vitro; rat EDTA plasma) was 63%.
Compound `CCCC[C@H](NC(=O)[C@@H]1CCCN1C(=O)CNC(=O)[C@H](CCCCN)NC(=O)[C@H](Cc1cn(CCOCCOCCOCCOCCOCCOCCOCCOCCOCCOCCN)nn1)NC(=O)[C@H](Cc1ccccc1)NC(=O)[C@H](CC(C)C)N(C)C(=O)[C@H](CCCCNC(=N)N)NC(=O)[C@@H]1CCCN1C(=O)[C@H](CCCNC(=N)N)NC(=O)[C@@H]1CCC(=O)N1)C(=O)N[C@H](Cc1ccccc1)C(=O)O` [compound 29] has a remaining at 1 h, 5 μM (in vitro; plasma) of 50%.
For “SEQ ID NO: 135: PEGylated bis-peptide, 1.7 kDa PEG conjugate ([PEG35′][Atz]KFRRQRP[hArg][Cha]SHKG[Oic][Nle]P[Phe(4-Cl)]; not fully specified (residue 1); numbers in words are those of the source; also: bis-peptide: two peptide chains joined through PEG35 on Atz)”, the “potency relative to monopeptide (SEQ ID NO: 494)” value (rat APJ receptor) was “increased potency”.
For “SEQ ID NO: 133: PEGylated bis-peptide, the shortest PEG conjugate (~0.6 kDa PEG) ([PEG11′][Atz]KFRRQRP[hArg][Cha]SHKG[Oic][Nle]P[Phe(4-Cl)]; not fully specified (residue 1); numbers in words are those of the source; also: bis-peptide: two peptide chains joined through PEG11 on Atz)”, the “potency relative to monopeptide (SEQ ID NO: 494)” value (rat APJ receptor) was “reduced potency”.
For “SEQ ID NO: 134: PEGylated bis-peptide, 1 kDa PEG conjugate ([PEG23′][Atz]KFRRQRP[hArg][Cha]SHKG[Oic][Nle]P[Phe(4-Cl)]; not fully specified (residue 1); numbers in words are those of the source; also: bis-peptide: two peptide chains joined through PEG23 on Atz)”, the “potency relative to monopeptide (SEQ ID NO: 494)” value (rat APJ receptor) was “increased potency”.
Work on `CCCC[C@H](NC(=O)[C@@H]1C[C@@H]2CCCC[C@@H]2N1C(=O)CNC(=O)[C@H](CCCCN)NC(=O)[C@H](Cc1c[nH]cn1)NC(=O)[C@H](Cc1cn(CCOCCOCCOCCOCCOCCOCCOCCOCCOCCOCCN)nn1)NC(=O)[C@H](CC(C)C)N(C)C(=O)[C@H](CCCCNC(=N)N)NC(=O)[C@@H]1CCCN1C(=O)[C@H](CCCNC(=N)N)NC(=O)[C@@H]1CCC(=O)N1)C(=O)N[C@@H](Cc1ccc(Cl)cc1)C(=O)O` [compound 35] yielded a remaining at 1 h, 5 μM (in vitro; plasma) of 82%.
In the case of “SEQ ID NO: 129: 20 kDa PEG-mono(Atz-KFRRQRP[hArg][Cha]SHKG[Oic][Nle]P[4-Cl—F]) (XKFRRQRPRLSHKGPMPF; not fully specified; 20 kDa PEG, Atz linker; non-natural residues; source: /note="N-term may or may not be modified by conjugation linker, an acyl group, an aryl group, an alkyl group, NPeg11, a PEG derivative or other serum half-life prolonging group"; MOD_RES (1)..(1): Atz)”, the “in vitro potency relative to endogenous pyr apelin 13 (SEQ ID NO: 128)” value (rat APJ receptor) is reported as “significantly more potent” and the “in vitro potency, mono vs bis vs tetrakis 20 kDa PEG peptides” value (from here on “in vitro potency, mono vs bis”) (rat APJ receptor) is reported as “approximately equipotent”.
For “SEQ ID NO: 130: 20 kDa PEG-bis(Atz-KFRRQRP[hArg][Cha]SHKG[Oic][Nle]P[4-Cl—F]) (KFRRQRP[hArg][Cha]SHKG[Oic][Nle]P[Phe(4-Cl)]; not fully specified (N-terminus); also: 20 kDa PEG carries two peptide copies)”, the “in vitro potency relative to endogenous pyr apelin 13 (SEQ ID NO: 128)” value (rat APJ receptor) was “significantly more potent” and the “in vitro potency, mono vs bis” value (rat APJ receptor) was “approximately equipotent”.
With `CCCC[C@H](NC(=O)[C@@H]1C[C@@H]2CCCC[C@@H]2N1C(=O)CNC(=O)[C@H](CCCCN)NC(=O)[C@H](Cc1c[nH]cn1)NC(=O)[C@H](Cc1cn(CCOCCOCCOCCOCCOCCOCCOCCOCCOCCOCCN)nn1)NC(=O)[C@H](CC1CCCCC1)NC(=O)[C@H](CCCCNC(=N)N)NC(=O)[C@@H]1CCCN1C(=O)[C@H](CCCNC(=N)N)NC(=O)[C@@H]1CCC(=O)N1)C(=O)N1CCC[C@H]1C(=O)N[C@@H](Cc1ccc(Cl)cc1)C(=O)O` [compound 34] the remaining at 1 h, 5 μM (in vitro; plasma) was 72%.
For “Thiopropionyl(20K-mPEG)- RQRP[hArg][Cha]SHKG[Oic][Nle]P[4-Cl-F] [compound 47]”, the “in vitro plasma stability (t1/2, min) | DOG” value (FIGURE 4B [1]) was 279 min, the “in vitro plasma stability (t1/2, min) | HUMAN” value (FIGURE 4B [1]) was 300 min and the “in vitro plasma stability (t1/2, min) | MOUSE” value (FIGURE 4B [1]) was 41 min.
`CCCC[C@H](NC(=O)[C@@H]1C[C@@H]2CCCC[C@@H]2N1C(=O)CNC(=O)[C@H](CCCCN)NC(=O)[C@H](Cc1c[nH]cn1)NC(=O)[C@H](Cc1cn(CCOCCOCCOCCOCCOCCOCCOCCOCCOCCOCCN)nn1)NC(=O)[C@H](CC(C)C)N(C)C(=O)[C@H](CCCCNC(=N)N)NC(=O)[C@@H]1CCCN1C(=O)[C@H](CCCNC(=N)N)NC(=O)[C@@H]1CCC(=O)N1)C(=O)N1CCC[C@H]1C(=O)N[C@@H](Cc1ccc(Cl)cc1)C(=O)O` [compound 36] showed a remaining at 1 h, 5 μM (in vitro; plasma) of 88%.
In the case of “Atz(20K-mPEG)- KFRRQRP[hArg][Cha]SHKG[Oic][Nle]P[4-Cl-F] [compound 49]”, the “in vitro plasma stability (t1/2, min) | HUMAN” value (FIGURE 4B [2]) is reported as 176 min, the “in vitro plasma stability (t1/2, min) | MOUSE” value (FIGURE 4B [2]) is reported as 55 min and the “in vitro plasma stability (t1/2, min) | RAT” value (FIGURE 4B [2]) is reported as 193 min.
In the case of “SEQ ID NO: 131: 20 kDa PEG-tetrakis(Atz-KFRRQRP[hArg][Cha]SHKG[Oic][Nle]P[4-Cl—F]) (KFRRQRP[hArg][Cha]SHKG[Oic][Nle]P[Phe(4-Cl)]; not fully specified (N-terminus); also: 20 kDa PEG carries four peptide copies)”, the “in vitro potency relative to endogenous pyr apelin 13 (SEQ ID NO: 128)” value (rat APJ receptor) is reported as “significantly more potent” and the “in vitro potency, mono vs bis” value (rat APJ receptor) is reported as “approximately equipotent”.
In the case of “SEQ ID NO: 136: PEGylated bis-peptide, 2.2 kDa PEG conjugate ([PEG47′][Atz]KFRRQRP[hArg][Cha]SHKG[Oic][Nle]P[Phe(4-Cl)]; not fully specified (residue 1); numbers in words are those of the source; also: bis-peptide: two peptide chains joined through PEG47 on Atz)”, the “potency relative to monopeptide (SEQ ID NO: 494)” value (rat APJ receptor) is reported as “increased potency”.
For `CCCC[C@H](NC(=O)[C@@H]1CCCN1C(=O)CNC(=O)[C@H](CCCCN)NC(=O)[C@H](Cc1c[nH]cn1)NC(=O)[C@H](CO)NC(=O)[C@H](CC1CCCCC1)NC(=O)[C@H](CCCCNC(=N)N)NC(=O)[C@@H]1CCCN1C(=O)[C@H](CCCNC(=N)N)NC(=O)[C@@H]1CCC(=O)N1)C(=O)N[C@@H](Cc1ccc(Cl)cc1)C(=O)O` [compound 32] ([pGlu]RP[hArg][Cha]SHKGP[Nle][Phe(4-Cl)]-OH; C-terminus assumed), the remaining at 1 h, 5 μM (in vitro; rat EDTA plasma) was 64.6%.
For “Thiopropionyl(20K-mPEG)- KFRRQRP[hArg][Cha]SHKG[Oic][Nle]P[4-Cl-F] [compound 44]”, the “in vitro plasma stability (t1/2, min) | DOG” value (FIGURE 4B [1]) was 172 min, the “in vitro plasma stability (t1/2, min) | HUMAN” value (FIGURE 4B [1]) was 142 min and the “in vitro plasma stability (t1/2, min) | MOUSE” value (FIGURE 4B [1]) was 37 min. The “in vitro plasma stability (t1/2, min) | RAT” value (FIGURE 4B [1]) was 180 min.
`CCCC[C@H](NC(=O)[C@@H]1C[C@@H]2CCCC[C@@H]2N1C(=O)CNC(=O)[C@H](CCCCN)NC(=O)[C@H](Cc1cn(CCOCCOCCOCCOCCOCCOCCOCCOCCOCCOCCN)nn1)NC(=O)[C@H](Cc1ccccc1)NC(=O)[C@H](CC1CCCCC1)NC(=O)[C@H](CCCCNC(=N)N)NC(=O)[C@@H]1CCCN1C(=O)[C@H](CCCNC(=N)N)NC(=O)[C@@H]1CCC(=O)N1)C(=O)N[C@H](Cc1ccccc1)C(=O)O` [compound 33] showed a remaining at 1 h, 5 μM (in vitro; plasma) of 66%.
For “Thiopropionyl(20K-mPEG)- QRP[hArg][Cha]SHKG[Oic][Nle]P[4-Cl-F] [compound 48]”, the “in vitro plasma stability (t1/2, min) | DOG” value (FIGURE 4B [1]) was 219 min, the “in vitro plasma stability (t1/2, min) | HUMAN” value (FIGURE 4B [1]) was 307 min and the “in vitro plasma stability (t1/2, min) | MOUSE” value (FIGURE 4B [1]) was 53 min. For the same compound, the “in vitro plasma stability (t1/2, min) | RAT” value (FIGURE 4B [1]) was 303 min.
